Experimental data published in the DeepSol protein solubility set.

test: soluble on expression in E. coli; label from the status in PepcDB or PDB records

| Sequence | soluble on expression in E. coli |
| --- | --- |
| MFVGPSPPHTPLVNRRNINNHRPRNATVTSALPDIFLAAVSLLFLWSSPKPLVSLPPNRFSFPLNPRRRSITAMSRRSPPPPPPTQRFANPQSLSDWLESRLPSDSFAAWGVKPGTKNVHNLWLELSDGETSLADSTPPVRTVNVVTVRVIGKNGRILVEAHQELSDGSIRERFRPLSEKMKPEESPDEAVFRAIKEELGSIFNGDGDNIGQRIKILPGTYNRRVEERNSLSYPGLPARYALHSVNATVEGLPEQDFCTEEKEYEGGDSTKDSVETLAAGNAVTVKRHYWKWVSPDSIRS | not soluble |
| MFVLPVRFERSPRLHPMLSESPHPVGTRVVVQGKRGPEIATVRGEASEPERQARYGAVLRAATPEDLATWEDLHRRAEDLKWLLRARARERGLPVKLVAVEFTLDESLVTISYSADERIELSSLIGELRAHTRARVNFAAIGPREQAQMLGTLGACGRENCSSTHLQDFAPVSIRMARDQQLPLNPEKLSGPCGRLLCCLQYEHEQYLDLLRDLPRKNAKMCHEGSGACGKVTKLHPLAGTVDLQTDQGLLQDVPASELRRLPEQAAARSPRREPREAPASTDLEHHHHHH | soluble |
| MFYPDPFDVIIIGGGHAGTEAAMAAARMGQQTLLLTHNIDTLGQMSCNPAIGGIGKGHLVKEVDALGGLMAKAIDQAGIQFRILNASKGPAVRATRAQADRVRYRQAVRTALENQPNLMIFQQAVEDLIVENDRVVGAVTQMGLKFRAKAVVLTVGTFLDGKIHIGLDNYSGGRAGDPPSIPLSRRLRELPLRVGRLKTGTPPRIDARTIDFSVLAQQHGDNPMPVFSFMGNASLHPQQVPCYITHTNEKTHDVIRSNLDRSPMYAGVIEGVGPRYCPSIEDKVMRFADRNQHQIFLEPEGLTSNEIYPNGISTSLPFDVQMQIVRSMQGMENAKIVRPGYAIEYDFFDPRDLKPTLESKFIQGLFFAGQINGTTGYEEAAAQGLLAGLNAARLSADKEGWAPARSQAYLGVLVDDLCTLGTKEPYRMFTSRAEYRLMLREDNADLRLTEIGRELGLVDDERWARFNEKLENIERERQRLKSTWVTPSAEAAAEVNAHLTAPLSREASGEDLLRRPEMTYEKLTTLTPFAPALTDEQAAEQVEIQVKYEGYIARQQDEIEKQLRNENTLLPATLDYRQISGLSNEVIAKLNDHKPASIGQASRISGVTPAAISILLVWLKKQGMLRRSA | not soluble |
| MGACPRFERASARGMIARNPIKQDPAMRNTQDDHSRFLSLVLRHQPETIGLQLDDQGWADIGELLARLAAKGRNLGRKQLEKIVLDNDKQRFAISEDGLRIRANQGHSIKIDLGLAACEPPDRLYHGTASRFLDAILAEGLRPGQRQHVHLSADGQTARKVGARHGKPVVLEIDARAMRQAGLAFYRSDNGVWLIDGVPPVFIRQTEARLEHHHHHH | soluble |
| MGAGEKGIVEKEGYQLDTRRQAQAAYPRIKVLVIHYTADDFDSSLATLTDKQVSSHYLVPAVPPRYNGKPRIWQLVPEQELAWHAGISAWRGATRLNDTSIGIELENRGWQKSAGVKYFAPFEPAQIQALIPLAKDIIARYHIKPENVVAHADIAPQRKDDPGPLFPWQQLAQQGIGAWPDAQRVNFYLAGRAPHTPVDTASLLELLARYGYDVKPDMTPREQRRVIMAFQMHFRPTLYNGEADAETQAIAEALLEKYGQD | soluble |
| MGAMESLRWMEARLPEILKDLEAFVRRESPSGDLEGLEAAARFLEEAFGPLEGRLSRKDTPAGPVLLLKREGEGAPVLLLCHYDTVHPKGSFPEPFRLEREKAIGPGVYDMKGGIIALLYALRYAEATGRRLPALEVLFTPDEEVGSPESRPLIEAAAKKARAVLVLEPPTAEGHLKVARKGVGLYRLRAIGKAAHQGVEPEKGVNAILELAHQVLKVAALEDREKGTTLGPNRIRGGTATNVVAEEAEVEIDLRAWTLEEVQRVEEGLKALKPVLPGARLVLSGGLNRPPMEPTEASLALFAKARAIGEALGLRLEPGRVGGGSDGNFTAALGVPTLDGLGLFGGNAHQKTEYVVVPEIPRRTALLAELLAAL | soluble |
| MGDAPSPEEKLHLITRNLQEVLGEEKLKEILKERELKIYWGTATTGKPHVAYFVPMSKIADFLKAGCEVTILFADLHAYLDNMKAPWELLELRVSYYENVIKAMLESIGVPLEKLKFIKGTDYQLSKEYTLDVYRLSSVVTQHDSKKAGAEVVKQVEHPLLSGLLYPGLQALDEEYLKVDAQFGGIDQRKIFTFAEKYLPALGYSKRVHLMNPMVPGLTGSKMSSSEEESKIDLLDRKEDVKKKLKKAFCEPGNVENNGVLSFIKHVLFPLKSEFVILRDEKWGGNKTYTAYVDLEKDFAAEVVHPGDLKNSVEVALNKLLDPIREKFNTPALKKLASAAYPDPSKQKPMAKGPAKNSEPEEVILEHHHHHH | soluble |
| MGDEDDDESCAVELRITEANLTGHEEKVSVENFELLKVLGTGAYGKVFLVRKAGGHDAGKLYAMKVLRKAALVQRAKTQEHTRTERSVLELVRQAPFLVTLHYAFQTDAKLHLILDYVSGGEMFTHLYQRQYFKEAEVRVYGGEIVLALEHLHKLGIIYRDLKLENVLLDSEGHIVLTDFGLSKEFLTEEKERTFSFCGTIEYMAPEIIRSKTGHGKAVDWWSLGILLFELLTGASPFTLEGERNTQAEVSRRILKCSPPFPPRIGPVAQDLLQRLLCKDPKKRLGAGPQGAQEVRNHPFFQGLDWVALAARKIPAPFRPQIRSELDVGNFAEEFTRLEPVYSPPGSPPPGDPRIFQGYSFVAPSILFDHNNAVMTDGLEAPGAGDRPGRAAVARSAMMQYELDLREPALGQGSFSVCRRCRQRQSGQEFAVKILSRRLEANTQREVAALRLCQSHPNVVNLHEVHHDQPHTYLVLELLRGGELLEHIRKKRHFSESEASQILRSLVSAVSFMHEEAGVVHRDLKPENILYADDTPGAPVKIIDFGFARLRPQSPGVPMQTPCFTLQYAAPELLAQQGYDESCDLWSLGVILYMMLSGQVPFQGASGQGGQSQAAEIMCKIREGRFSLDGEAWQGVSEEAKELVRGLLTVDPAKRLKLEGLRGSSWLQDGSARSSPPLRTPDVLESSGPAVRSGLNATFMAFNRGKREGFFLKSVENAPLAKRRKQKLRSATASRRGSPAPANPGRAPVAAKGAPRRANGPLPPS | soluble |
| MGDKGTRVFKKASPNGKLTVYLGKRDFVDHIDLVEPVDGVVLVDPEYLKERRVYVTLTCAFRYGREDLDVLGLTFRKDLFVANVQSFPPAPEDKKPLTRLQERLIKKLGEHAYPFTFEIPPNLPCSVTLQPGPEDTGKACGVDYEVKAFCAENLEEKIHKRNSVRLVIRKVQYAPERPGPQPTAETTRQFLMSDKPLHLEASLDKEIYYHGEPISVNVHVTNNTNKTVKKIKISVRQYADICLFNTAQYKCPVAMEEADDTVAPSSTFCKVYTLTPFLANNREKRGLALDGKLKHEDTNLASSTLLREGANREILGIIVSYKVKVKLVVSRGGLLGDLASSDVAVELPFTLMHPKPKEEPPHREVPEHETPVDTNLIELDTNDDDIVFEDFARQRLKGMKDDKEEEEDGTGSPRLNDR | soluble |
| MGDLIAITYHSNALQSERQMYVWTPPGYTGMGEPLPVLYFYHGFGDTGRSAIDQGRIPQIMDNLLAEGKIKPMLVVIPDTETDAKGIIPEDFVPQERRKVFYPLNAKAADRELMNDIIPLISKRFSVRKDADGRALAGLSQGGYQALVSGMNHLESFGWLATFSGVTTTTVPDEGVAARLNDPAAINQQLRNFTVVVGDKDVVTGKDIAGLKTELEQKKIKFDYQEYPGLNHEMDVWRPAYAAFVQKFKIRHLEHHHHHH | not soluble |
| MGDNENGDNLNNHQDSGSGSHHDAAPQQQQNNMSHQQQPQQQQHNEHNKQQQQQRDDVCRDFLKNICNRGSRCKFYHPSEAPPISDHDYNFCIDYQNRGCQRDNCRFVHAPRDEVERYKTTRELTLILARAIAAVGHGDTIGGIPICKEFQTGRCARGVNRCRYWHVNVDLERDRRNRGLPPSNDFGPGGGGGGMGGGGGSGGSGGGSGRFPPPPPPYGGGGRRRPYDDYDSDPIKRGRYGSDDRLMELEKRNAELSKEVDSLRRELQREHDRYEDLYALFRQQSGGAPAPPKAAAAASAVNDYYGTWGQKAPGW | soluble |
| MGDSILSQAEIDALLNGDSDTKDEPTPGIASDSDIRPYDPNTQRRVVRERLQALEIINERFARQFRMGLFNLLRRSPDITVGAIRIQPYHEFARNLPVPTNLNLIHLKPLRGTGLVVFSPSLVFIAVDNLFGGDGRFPTKVEGREFTHTEQRVINRMLKLALEGYSDAWKAINPLEVEYVRSEMQVKFTNITTSPNDIVVNTPFHVEIGNLTGEFNICLPFSMIEPLRELLVNPPLENSRHEDQNWRDNLVRQVQHSELELVANFADIPLRLSQILKLKPGDVLPIEKPDRIIAHVDGVPVLTSQYGTVNGQYALRVEHLINPILNSLNEEQPK | not soluble |
| MGDSVLSAIQQTITQRKSANPSESYVAQLLHKGEDKILKKVIEEAGEVLMASKDKNPSHLVYEVADLWFHTMILLTHHDLKAEDVLDELARRQGLSGLVEKAARTES | not soluble |
| MGEKLELRLKSPVGAEPAVYPWPLPVYDKHHDAAHEIIETIRWVCEEIPDLKLAMENYVLIDYDTKSFESMQRLCDKYNRAIDSIHQLWKGTTQPMKLNTRPSTGLLRHILQQVYNHSVTDPEKLNNYEPFSPEVYGETSFDLVAQMIDEIKMTDDDLFVDLGSGVGQVVLQVAAATNCKHHYGVEKADIPAKYAETMDREFRKWMKWYGKKHAEYTLERGDFLSEEWRERIANTSVIFVNNFAFGPEVDHQLKERFANMKEGGRIVSSKPFAPLNFRINSRNLSDIGTIMRVVELSPLKGSVSWTGKPVSYYLHTIDRTILENYFSSLKNPKLREEQEAARRRQQRESKSNAATPTKGPEGKVAGPADAPMDSGAEEEKAGAATVKKPSPSKARKKKLNKKGRKMAGRKRGRPKK | soluble |
| MGFGDIQTQPGTYSMHHMTTSTRITSRFLKNKTTNMKRLGVDPPCGVPEPKEDVLLAVSCDAFAFGQDDTNNDRITVEWTNTPDGAAKQFRREWF | not soluble |
| MGFLKILRKQRAREREMRILILGLDNAGKTTLMKKFLDEPTDTIEPTLGFDIKTVHFKDFQLNLWDVGGQKSLRSYWKNYFESTDALIWVVDSSDRERLLQCSEELKKLLGEERLAGASLLVLANKSDLPGAIDVNSIAQVLDLHSIKSHHWKIFSCCALSGDRLVQAMTWLCDDVGSRLFILD | not soluble |
| MGFQLRGTGTQELSIKELDLSARDAYGTTIKMLKQQLESSGVRVHAGAPYKLVLLSEENSQRTLSYTGGGNSAEYEIGTTLRYEILTHDNLHLLDDKLEVQKVFLHDGNNITGSDQESSETRKEMRRDLIQRMLIRLQLLTPEQLAQLQATAEAKAKAEADALEAARKAEAETPQQSPMELPNQLEHHHHHH | not soluble |
| MGFSFLLATVQKERMKRRSRTRSRSRRRAKQDPKTWVARYIPQDLLIEILTRLPPKSVMRFKCVSKFWSSLLSSRYFCNRFLIVPSQPQPSLYMCLLDRYNYSKSLILSSAPSTSPYSFVFDQDLTIRKMGGFFLRILRGFIFFTRNLKARIYNPTTRQLVILPTIKESDIIAGPPYNILYFICHDPVNDRYKLLCTVSYASDNDLQNLKSELWIFVLEAGGSWKRVANEFPHHVPSHLDLNMNGVLYFLAWTDPHTCMLVSFDVRSEEFNTMQVPRNAGDTLPRQEKGVVNRVW | not soluble |
| MGGGERYNIPAPQSRNVSKNQQQLNRQKTKEQNSQMKIVHKKKERGHGYNSSAAAWQAMQNGGKNKNFPNNQSWNSSLSGPRLLFKSQANQNYAGAKFSEPPSPSVLPKPPSHWVPVSFNPSDKEIMTFQLKTLLKVQV | not soluble |
